The experiment addresses Not1-3HA (UniProt P25655). Briefly: co-immunoprecipitation (TAP pull-down on IgG-coupled magnetic beads), Western blot quantification. The following applies: cells in exponential growth phase; n=5 biological replicates; parent: est. 1.0; read off a plot.
Chain of UniProt P25655 (P25655 whole entry): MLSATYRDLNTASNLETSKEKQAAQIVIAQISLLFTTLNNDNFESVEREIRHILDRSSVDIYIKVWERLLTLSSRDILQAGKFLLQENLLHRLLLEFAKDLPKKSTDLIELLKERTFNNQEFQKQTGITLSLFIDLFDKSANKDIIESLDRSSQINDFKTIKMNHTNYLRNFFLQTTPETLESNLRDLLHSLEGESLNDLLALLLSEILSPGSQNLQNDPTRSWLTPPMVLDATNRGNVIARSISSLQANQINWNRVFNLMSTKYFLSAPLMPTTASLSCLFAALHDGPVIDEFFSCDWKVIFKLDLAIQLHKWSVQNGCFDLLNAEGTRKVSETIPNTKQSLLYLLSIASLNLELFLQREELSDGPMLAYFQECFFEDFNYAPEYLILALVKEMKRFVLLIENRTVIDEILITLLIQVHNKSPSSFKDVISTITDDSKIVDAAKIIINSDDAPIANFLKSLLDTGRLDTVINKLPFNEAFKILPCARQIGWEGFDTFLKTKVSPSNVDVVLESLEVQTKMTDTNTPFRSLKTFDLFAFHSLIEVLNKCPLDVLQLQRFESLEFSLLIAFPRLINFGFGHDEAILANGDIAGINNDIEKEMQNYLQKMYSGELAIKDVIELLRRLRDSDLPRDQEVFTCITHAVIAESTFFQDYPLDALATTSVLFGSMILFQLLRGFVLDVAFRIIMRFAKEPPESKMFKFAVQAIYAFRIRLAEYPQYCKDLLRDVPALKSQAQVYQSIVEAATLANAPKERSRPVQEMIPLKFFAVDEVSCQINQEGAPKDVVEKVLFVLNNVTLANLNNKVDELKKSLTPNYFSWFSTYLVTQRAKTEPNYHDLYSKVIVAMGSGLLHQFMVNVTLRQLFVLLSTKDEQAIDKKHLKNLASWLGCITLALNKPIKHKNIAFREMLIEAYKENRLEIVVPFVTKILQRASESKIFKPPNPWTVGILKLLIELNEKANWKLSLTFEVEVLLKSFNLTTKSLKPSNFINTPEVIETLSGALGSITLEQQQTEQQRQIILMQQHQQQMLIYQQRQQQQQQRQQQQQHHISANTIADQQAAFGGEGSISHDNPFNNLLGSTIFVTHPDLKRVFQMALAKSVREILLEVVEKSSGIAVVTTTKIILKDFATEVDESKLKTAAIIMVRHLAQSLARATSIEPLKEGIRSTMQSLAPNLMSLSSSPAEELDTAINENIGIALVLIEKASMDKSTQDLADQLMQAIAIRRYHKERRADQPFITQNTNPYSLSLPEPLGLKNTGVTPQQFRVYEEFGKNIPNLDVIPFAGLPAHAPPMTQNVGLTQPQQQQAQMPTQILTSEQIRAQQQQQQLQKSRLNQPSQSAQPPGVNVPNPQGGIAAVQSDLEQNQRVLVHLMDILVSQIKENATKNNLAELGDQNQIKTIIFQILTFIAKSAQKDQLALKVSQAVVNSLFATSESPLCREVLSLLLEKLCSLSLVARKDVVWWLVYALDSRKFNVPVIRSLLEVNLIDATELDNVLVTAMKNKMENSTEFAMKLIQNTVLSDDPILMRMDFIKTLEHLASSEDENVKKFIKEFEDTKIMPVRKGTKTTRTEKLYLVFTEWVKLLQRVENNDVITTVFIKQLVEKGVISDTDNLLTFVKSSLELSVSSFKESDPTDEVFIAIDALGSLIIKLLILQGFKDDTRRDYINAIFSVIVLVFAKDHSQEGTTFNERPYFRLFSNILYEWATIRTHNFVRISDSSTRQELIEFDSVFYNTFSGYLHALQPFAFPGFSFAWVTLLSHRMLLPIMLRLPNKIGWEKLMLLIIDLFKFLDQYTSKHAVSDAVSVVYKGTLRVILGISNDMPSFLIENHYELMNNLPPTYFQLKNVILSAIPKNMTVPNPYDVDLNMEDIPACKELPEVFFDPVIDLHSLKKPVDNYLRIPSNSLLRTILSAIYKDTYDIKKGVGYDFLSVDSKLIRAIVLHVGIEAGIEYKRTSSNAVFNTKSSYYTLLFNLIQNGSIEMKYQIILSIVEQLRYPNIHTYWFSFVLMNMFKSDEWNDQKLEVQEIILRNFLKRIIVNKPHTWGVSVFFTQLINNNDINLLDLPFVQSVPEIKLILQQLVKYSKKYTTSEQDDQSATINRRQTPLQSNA

Consider “TAP-tagged Dhh1 (from UniProt P39517) R55E; F62E; Q282E; N284E; R355E”, for which the ratio to parent worked out at 0.44.

The record behind these values is PMC5096884.
